# According to the DeepSol protein solubility set:
# Test: soluble on expression in E. coli; label from the status in PepcDB or PDB records
row,Sequence,soluble on expression in E. coli
1,MELKDGESAGNAENDVEIENPEKSEKAEILQSLDKSLGKSTEESPEAKNLRYFKTKKIRFGPIEYQIVTQNINGPCPLIALINALVLKGKLTIPSSYVVTSTNLLNLLTNVILARAPPENDEKLKETFEANLGDVMNIMETLVNGLDVNVKFSAVDTFEFTPALSLFDLVSVNLYHVWLPDPQFTVLYDLIRNLNYNELVEKMCGDQSTETELLRTFYDESISQITFHGLASLMERMKDGELAVVFHNNHFSTILKRRDEIFKLVSDEGLCDEPNIVWETFSSVDGDCIFVNGDFGNFKPITPPTTHPSPESFEKLQISDNSPIEQGIEAVEHTSAHHSAPVSPQHRAPAPPAPQTARAPPETSPTRNSGAGGKSCLIM,soluble
2,RPQISIRVDVPKEEKGIEAMICLDISNSMLCEDVKPNRLSFAKQVLGKLFDGLQNDKVGLVVFAGNAYTQIPITTDLSAAKQFLADISPNMVTAQGTAIGAAIELASKSFSDNKEIGKTIIVLTDGENHEGNAIEAAQQAHEAGIRVNVIGLGTALGAPIPIEEGYLKDETGNPVVTKFDEKMCRDIASAGEGTFFSGQSASALVRAIESQLDKLPKAVLSSSSSSGYREV,not soluble
3,EVKVEESGGGLVQPGGSMKLSCVASGFTFSNYWMEWVRQSPEKGLEWVAEIRLKSNNYATHYAESVKGRFTISRDDSKSSVYLQMNNLRAEDTGIYYCTRGGAVGAMDYWGQGTSVTVSSATTTAPSVYPLVPGCSDTSGSSVTLGCLVKGYFPEPVTVKWNYGALSSGVRTVSSVLQSGFYSLSSLVTVPSSTWPSQTVICNVAHPASKVDLIKEPSGP,soluble
4,GAMGSWNPKYDTRTLWTTPDTSPNCTIAQDKDSKLTLVLTKCGSQILANVSLIVVAGKYHIINNKTNPKIKSFTIKLLFNKNGVLLDNSNLGKAYWNFRSGNSNVSTAYEKAIGFMPNLVAYPKPSNSKKYARDIVYGTIYLGGKPDQPAVIKTTFNQETGCEYSITFNFSWSKTYENVEFETTSFTFSYIAQE,soluble
5,MDERDVLWVGVCAMPKKVESEPMQRILAALTSSRVAHFEPMIFDAKTLFERPIHKWPVCDALIAFHSEGFPLERAIAYAELRRPYCLNGLREQRMLLDRSKVYEVLARERVPVPRHIVVRHDGADVGRTDTRFVEHDDYIEYCGERLFKPFVEKPIDAEDHRVCIYYARPLYGRRRLFRKTANQSSVFEPGWRRVRREGAFIYEEFIPSEHQSDIKVYAVGPEYAYAERRKSPVVDGIVERNAHGKELRFPVELSTAERCVAATITAAFRQFVCGFDLIRHADGNAFYVNDVNGFSFVKGSQSYYESCGRILAEHLARECARSAAVDGE,not soluble
6,FIKLITSAKKRVWIQTPYLVPDDSVLAALKVAAASGVDVKIMIPDKPDHPFIYRATQYYGRLLMKENIEILIYNGGFLHAKTMIMDDEVCTVGSANQDIRSYKLNFEANAVLYDKKIIDQLEAIFLEDRKKCTTMTPEVVRDM,not soluble
7,ARNKALKADGAFNGVEKEGLFKAMKHYGYEGLAVLVSERGHYSLKKAADVLGLGQEGLVAVKTDANNRIVVDDLKTKIAELKEQNIKPIAVIGVAGTTETGSVDPLSQIAQVCQEHNCHFHVDAAWGGATLMSNHYRHLLEGVELADSVTIDAHKQLYIPMGAGMVLFKDPDAMKSIEHHAQYILRKGSKDLGSHTLEGSRSGMAMLVYAAMHIISRPGYELLIDQSIEKARYFADLIKQQDDFELVSEPELCLLTYRYLPPLIREALDKAEGTQKEKLNELINQLTQFIQKRQRETGKSFVSRTRLNPDQWQRMNTIVFRVVLANPLTTRDILSSVLDEQREIAKQAPSLTAKIEEMASDILGA,not soluble
8,MSLAMLMLLAACSERSADWSLYNVKGHLPDLKFSLPGAHGKTVSSDDLKGKTVLLFFGYASCPDVCPTTMAQLTAVLQQLGEQARDVRILFVSVDPHRDTPDILQAYVNAFNNNAIGVTGNEKQIADLARRYRLAYQIEKPKPGDDADIYDVTHSRGVYIFDNQGKARLLASDTDTIDTMVKDLRQLIAQTQEGHHHHHH,soluble
